Measurements published in patent US20110064653A1 (IMMUNOMEDICS, published 2011).
Read-outs that look alike come from different tables or passages of the source.

Assays:
CEACAM5/CEACAM6 [1] = test: cell-based or functional assay
[2] = target: CEACAM6 (NCA-90) on cells (human) (UniProt P40199); test: cell-based or functional assay
[3] = target: T1, carcinoembryonic antigen (CEA) (human, UniProt P06731 35-685); test: 125I-CEA radioimmunoassay
T1 construct: also called CEACAM5; CD66e
T1 sequence (looked up): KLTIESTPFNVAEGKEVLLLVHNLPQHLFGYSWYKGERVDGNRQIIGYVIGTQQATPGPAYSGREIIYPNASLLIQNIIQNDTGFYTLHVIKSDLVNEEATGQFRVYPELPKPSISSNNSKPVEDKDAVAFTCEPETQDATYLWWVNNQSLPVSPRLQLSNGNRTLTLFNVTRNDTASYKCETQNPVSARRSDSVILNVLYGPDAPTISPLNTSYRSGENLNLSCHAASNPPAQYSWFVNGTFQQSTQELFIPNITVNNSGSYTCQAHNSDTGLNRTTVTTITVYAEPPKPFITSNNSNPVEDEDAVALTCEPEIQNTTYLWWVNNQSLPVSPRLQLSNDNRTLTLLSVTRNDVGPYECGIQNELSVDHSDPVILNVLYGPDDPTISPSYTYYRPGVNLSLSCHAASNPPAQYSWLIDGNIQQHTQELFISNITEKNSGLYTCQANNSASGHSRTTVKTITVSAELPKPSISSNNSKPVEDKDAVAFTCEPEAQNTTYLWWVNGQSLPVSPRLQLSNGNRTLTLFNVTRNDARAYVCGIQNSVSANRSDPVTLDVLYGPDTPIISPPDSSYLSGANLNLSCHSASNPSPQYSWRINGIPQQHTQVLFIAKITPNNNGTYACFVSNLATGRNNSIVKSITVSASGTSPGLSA

[4] = target: T1, carcinoembryonic antigen (CEA); test: radioiodinated MAb (100 ng/ml) with increasing CEA; free versus bound antibody by HPLC sizing gel
CEACAM5/CEACAM6 [5] = test: cell-based or functional assay; remark: listed apart in the source
NCA-95 on HeLa cells = target: T2, NCA-95 on HeLa cells (UniProt P31997 35-320, limits assumed); test: indirect flow cytometry on HeLa-CGM6/1 transfectants
T2 construct: whole, on cells; also called HeLa-CGM6/1
T2 sequence (looked up): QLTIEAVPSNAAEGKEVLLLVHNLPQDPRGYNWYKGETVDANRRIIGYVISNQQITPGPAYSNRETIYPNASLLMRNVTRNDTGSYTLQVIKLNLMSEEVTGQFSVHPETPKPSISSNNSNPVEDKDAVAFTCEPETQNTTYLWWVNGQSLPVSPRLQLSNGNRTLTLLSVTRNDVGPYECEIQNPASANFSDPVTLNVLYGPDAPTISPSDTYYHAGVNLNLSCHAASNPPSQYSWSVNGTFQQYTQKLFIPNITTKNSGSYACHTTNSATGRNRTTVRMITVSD
Procedure: The reacitivty of antibodies was tested by flow cytometry with a Becton-Dickinson FACSCAN®. The biotinylated second antibody was directed against mouse IgG and was detected by a streptavidin/phycoerythrin conjugate. Tests were carried out with antibodies at 1/50 dilution of 1 mg/ml stocks.
The antibodies MN-3 and MN-15 were tested for recognition of HeLa cells transfected with cDNA coding for CEA (HeLa-CEA2), NCA-90 (HeLa-KNC6/S44) and NCA-95 (HeLa-CGM6/1). As a negative control, HeLa cells transfected with the plasmid pSV2-Neo (control HeLa cells, HeLa-NeoA) were used. In addition to the antibodies MN-3 and MN-15, three control antibodies were included: […]

[6] = target: T1, carcinoembryonic antigen (CEA); test: competitive binding assay on CEA; unlabeled competitor varied against HRP-labeled murine MN-15

**Q.** MN-3 Fab′ was tested. Which adhesion-inhibition of MCF-7, HT-29, BT-20 and Moser cells to endothelial cells (CEACAM5/CEACAM6 [1]) did it give?
**A.** 49 to 58%

**Q.** And the reduction of cell invasion, BXPC3, collagen-based invasion assay [2]?
**A.** 0%

**Q.** What about the reduction of cell invasion, CaPAN-1, collagen-based invasion assay [2] of the same molecule?
**A.** 55%

**Q.** What about the reduction of cell invasion, LS174T, collagen-based invasion assay [2] of the same molecule?
**A.** 3%

**Q.** And the reduction of cell invasion, MCF-7, collagen-based invasion assay [2]?
**A.** 47%

**Q.** And the reduction of cell invasion, ZR75-30, collagen-based invasion assay [2]?
**A.** 59%

**Q.** For NP-4 antibody, which percent of radioiodinated CEA bound [3] is on record?
**A.** < 50%

**Q.** And the CEA concentration for 50% complexation of the antibody [4]?
**A.** 1 to 2 µg/mL

B1: MN-15 Fab′ (Fab, V domains shown)
VL: DIQLTQSPAIMSASPGEKVTMTCSASSRVSYIHWYQQKSGTSPKRWIYGTSTLASGVPARFSGSGSGTSYSLTISSMEAEDAATYYCQQWSYNPPTFGAGTKLELKR
VH: EVRLVESGGGLVQGPGSLRLSCAASGFALTDYYMSWVRQSPGKTLEWLGFIANKANGHTTDYSPSVKGRFTISRDNSQTILYLQMNTLRTEDSATYYCARDMGIRWNFDVWGQGTTVTVSS
**Q.** How did the adhesion-inhibition of MCF-7, HT-29, BT-20 and Moser cells to endothelial cells (CEACAM5/CEACAM6 [5]) turn out when B1 was run?
**A.** 49 to 58%

B2: murine MN-15 antibody (antibody, mouse IgG1, V domains shown)
VH: EVRLVESGGGLVQGPGSLRLSCAASGFALTDYYMSWVRQSPGKTLEWLGFIANKANGHTTDYSPSVKGRFTISRDNSQTILYLQMNTLRTEDSATYYCARDMGIRWNFDVWGQGTTVTVSS
VL: DIQLTQSPAIMSASPGEKVTMTCSASSRVSYIHWYQQKSGTSPKRWIYGTSTLASGVPARFSGSGSGTSYSLTISSMEAEDAATYYCQQWSYNPPTFGAGTKLELKR
notes: also called mMN-15; MN-15 IgG
**Q.** With B2 as the molecule, how does the decrease of adhesion of CaPAN-1 cells to fibronectin (CEACAM5/CEACAM6 [5]) read?
**A.** 47%

**Q.** What about the decrease of adhesion of MCF-7 cells to fibronectin (CEACAM5/CEACAM6 [5]) of the same molecule?
**A.** 29%

**Q.** And the decrease of adhesion of MDA-468 cells to fibronectin (CEACAM5/CEACAM6 [5])?
**A.** 51%

**Q.** Does B2 bind (NCA-95 on HeLa cells)?
**A.** binds

**Q.** And the “IC50 (read off the curve)” value [6]?
**A.** ~5 nM

B3: chimeric MN-15 antibody (antibody, V domains shown)
VH: EVRLVESGGGLVQGPGSLRLSCAASGFALTDYYMSWVRQSPGKTLEWLGFIANKANGHTTDYSPSVKGRFTISRDNSQTILYLQMNTLRTEDSATYYCARDMGIRWNFDVWGQGTTVTVSS
VL: DIQLTQSPAIMSASPGEKVTMTCSASSRVSYIHWYQQKSGTSPKRWIYGTSTLASGVPARFSGSGSGTSYSLTISSMEAEDAATYYCQQWSYNPPTFGAGTKLELKR
**Q.** For B3, which “IC50 (read off the curve)” value [6] is on record?
**A.** ~5 nM

B4: humanized MN-15 antibody (antibody, V domains shown)
VH: QVQLVESGGGVVQPGRSLRLSCSSSGFALTDYYMSWVRQAPGKGLEWLGFIANKANGHTTDYSPSVKGRFTISRDNSKNTLFLQMDSLRPEDTGVYFCARDMGIRWNFDVWGQGTPVTVSS
VL: DIQLTQSPSSLSASVGDRVTMTCSASSRVSYIHWYQQKPGKAPKRWIYGTSTLASGVPARFSGSGSGTDFTFTISSLQPEDIATYYCQQWSYNPPTFGQGTKVEIKR
notes: Humanized variable regions (REI VK and KOL VH frameworks) cloned alongside human IgG1 constant region genes; also called hMN-15
**Q.** With B4 as the molecule, how does the “IC50 (read off the curve)” value [6] read?
**A.** ~5 nM
